Measured values published in patent publication US8841272B2, “Double-stranded RNA-based nanoparticles for insect gene silencing” (Kansas State University Research Foundation, priority 2011, dated 2014).

B1: dsAgCHS1-f2: dsRNA synthesized using residues 3,812 to 4,202 of SEQ ID NO: 1 as the template (nucleic acid, listed as Anopheles gambiae)
DNA: CAAAACGACGGACGAGAAGGCGCAGCTGATTCACATTGCCGATGCGCTGGACGCCATTACGAAGAAGATTGAGAATCTGGAAAAGCACATCGACCCGCACGGACATCATACGCGCAAGCGCACTGCGTCGGCGGGGTCGAAGGATCACCATCTCGGCTCGGTGGCGGAGGATACGGAGGACGATGATGAGGATGAAGATTCGGAGACTTCGACGCTGCAGCGCGACGAGCGCGACTTCCTCACCAACCCGTACTGGATCGAGGATCCGGATCTGAAGAAGGGCGAGGTGGACTTTATTTCCAGCACCGAGATCCAGTTCTGGAAGGACCTGATCGATAAGTACCTATACCCGATCGATCAAAACAAGGAGGAACAGGCACGTATTGCGCAC
modifications: double-stranded RNA
B2: dsAgCHS2-f1: dsRNA synthesized using residues 3,846 to 4,235 of SEQ ID NO: 3 as the template (nucleic acid, listed as Anopheles gambiae)
DNA: ACACATCGAGTGGTGGTTCAACGTGAAGAACAAGATCAGCTTTGACGAAAGCACGGTCGAGATCATGATCCGGCGCGAGTACCTGGAGCTCGAACCGATCGGTTTGGTGTTTGTGATGTTCTTCGGTTTGATTCTCATCATTCAGTTTGTGGCCATGCTGATGCATCGGTTCGGTACCATCTCCCAGATTCTTGCCTCCACCGAGCTGAACTGGTACTGTTCGAAGAAGGCTAAGGATATGTCACTCGATGCGGAACTGCGCGAGAATGCGGTCGAAATTGCACGTCGACTGCAGCGCCCCAAACCGCAGTGGGACGAGGAAGATCTAGAGGACGAGCAGAAAGCTATTGGACGTCGCGACACGATCCATCGCATTCTCTACCAGCACAA
modifications: double-stranded RNA
B3: dsAgCHS1-f1: dsRNA synthesized using residues 2,267 to 2,635 of SEQ ID NO: 1 as the template (nucleic acid, listed as Anopheles gambiae)
DNA: TGAAACGCACATCTTCTTCGATGACGCGTTCGAAATTTCGGACCACAGCGACGAGGACATTCAGTGTAATCGGTTCGTGAAGATTCTTGTCGACACCATCGACGAAGCTGCCTCGGAAGTGCATCAGACCAACATTCGATTGAGACCGCCCAAAAAGTACCCAACACCGTACGGTGGACGACTGGTGTGGACGCTGCCCGGTAAAACGAAGATGATTGCCCACCTGAAGGACAAGGATCGCATCCGGCACCGTAAGCGTTGGTCTCAGGTCATGTACATGTACTATCTGCTCGGCCACCGGCTGATGGAGCTGCCGATTTCCGTCGACCGTAAGGAGGTGATGGCGGAAAACACCTACCTGCTGACGCT
modifications: double-stranded RNA
B4: dsAgCHS2-f2: dsRNA synthesized using residues 3,331 to 3,719 of SEQ ID NO: 3 as the template (nucleic acid, listed as Anopheles gambiae)
DNA: GCCAGCGCCGAAAAGGAGCAAATCGCACAAATTGCGGCATCGCTCAGCGAAATAAGTGTAAAAATGAAGGCACTGGAAATGAAATTAACCGGCAACGTCAGCGTAATGAGATCAGACGACGAAGATGATGACATCGGTAGTCTCGATATGCATCGTCCGGAAGGTAACCGTGGCCCATCCTCGCCATCCTCCACCTCGGGCGCCGCCTCCCCGATCCAGACGGTGAAAAATGATTCCCTCGAAGAGCCCGAGAAGCAGATTAACTATCTGCCGGATTGGTTGTACGACGTGGATTTGAAAAACGGCGACACTGAGACGATCTCCGCCTCGGAGGAGCAATTCTGGATTGAGCTGATCGAGAAGTATCTGAAGCCGCTCGATCTGTCGGA
modifications: double-stranded RNA

tested on: AgCHS1; assay: qPCR of AgCHS1 transcript level in mosquito larvae after larval feeding; type: in vivo, Anopheles gambiae; details: 3rd-instar larvae fed once a day for 4 days on dsRNA nanoparticles, vs GFP dsRNA nanoparticles
Experimental: (§1) A group of 15-20 3rd-instar mosquito larvae was transferred into a 500-ml glass beaker containing 100 ml of deionized water. One sixth of the gel slices that were prepared from 32 μg of dsRNA, as described above, were added into each beaker. Approximately an equal amount of the gel slices was used to feed the larvae once a day for a total of four days. Any potential phenotypic changes were visually examined in the larvae during the experiment. The transcript levels of AgCHS1 or AgCHS2, chitin contents, and other phenotypic changes were assessed in the larvae at the end of the experiment (i.e., day 4).
(§2) Total RNA was extracted from mosquito larvae with TRIzol reagent (Invitrogen, Carlsbad, Calif.) and 3.5 μg of total RNA was used for first strand cDNA synthesis using the First Strand cDNA Synthesis kit (Fermentas, Glen Burnie, Md.). The first strand cDNA was then used as template for PCR and qPCR. A gene encoding ribosomal protein S3, AgRPS3, was used as an internal reference. PCR was performed with a PCR Master Mix kit (Fermentas). The qPCR was performed using a Maxima SYBR Green qPCR Master Mix (Fermentas), and the 2^−ΔΔCT method was used to calculate the relative levels of AgCHS1 and AgCHS2 transcripts in the mosquito larvae fed on the food containing the AgCHS1 or AgCHS2 dsRNA-based nanoparticles as compared with the control larvae fed on the food containing the GFP dsRNA-based nanoparticles.
(§3) For data obtained from qPCR, relative expression levels in percentage were calculated by dividing the relative expression value (REV) of each gene in the AgCHS dsRNA-treated larvae by the REV of the same gene in the GFP dsRNA-treated larvae. After the percentage data of the relative AgCHS expression were transformed using arcsine square root transformation, the transformed data were subjected to ANOVA followed by Fisher's least significant difference (LSD) multiple comparisons to separate the means among the treatments using ProStat software (Poly Software International, Pearl River, N.Y.).

| Molecule | repression of the transcript level of AgCHS1 |
| --- | --- |
| B1 | 52.4% |
| B2 | none of these AgCHS2 dsRNAs repressed |
| B3 | 62.8% |
| B4 | none of these AgCHS2 dsRNAs repressed |

tested on: AgCHS2; assay: qPCR of AgCHS2 transcript level in mosquito larvae after larval feeding; type: in vivo, Anopheles gambiae; details: 3rd-instar larvae fed once a day for 4 days on dsRNA nanoparticles, vs GFP dsRNA nanoparticles
Experimental: as §1, §2, §3

| Molecule | repression of the transcript level of AgCHS2 [%] |
| --- | --- |
| B1 | 57.9 |
| B2 | 63.4 |
| B3 | 48.4 |
| B4 | 48.8 |
